The text below walks through data of PMC7960543 (The Journal of Biological Chemistry, 2021).

First the molecules themselves.
T1: recombinant soluble integrin αvβ3, P06756;P05106
T1 chain 1: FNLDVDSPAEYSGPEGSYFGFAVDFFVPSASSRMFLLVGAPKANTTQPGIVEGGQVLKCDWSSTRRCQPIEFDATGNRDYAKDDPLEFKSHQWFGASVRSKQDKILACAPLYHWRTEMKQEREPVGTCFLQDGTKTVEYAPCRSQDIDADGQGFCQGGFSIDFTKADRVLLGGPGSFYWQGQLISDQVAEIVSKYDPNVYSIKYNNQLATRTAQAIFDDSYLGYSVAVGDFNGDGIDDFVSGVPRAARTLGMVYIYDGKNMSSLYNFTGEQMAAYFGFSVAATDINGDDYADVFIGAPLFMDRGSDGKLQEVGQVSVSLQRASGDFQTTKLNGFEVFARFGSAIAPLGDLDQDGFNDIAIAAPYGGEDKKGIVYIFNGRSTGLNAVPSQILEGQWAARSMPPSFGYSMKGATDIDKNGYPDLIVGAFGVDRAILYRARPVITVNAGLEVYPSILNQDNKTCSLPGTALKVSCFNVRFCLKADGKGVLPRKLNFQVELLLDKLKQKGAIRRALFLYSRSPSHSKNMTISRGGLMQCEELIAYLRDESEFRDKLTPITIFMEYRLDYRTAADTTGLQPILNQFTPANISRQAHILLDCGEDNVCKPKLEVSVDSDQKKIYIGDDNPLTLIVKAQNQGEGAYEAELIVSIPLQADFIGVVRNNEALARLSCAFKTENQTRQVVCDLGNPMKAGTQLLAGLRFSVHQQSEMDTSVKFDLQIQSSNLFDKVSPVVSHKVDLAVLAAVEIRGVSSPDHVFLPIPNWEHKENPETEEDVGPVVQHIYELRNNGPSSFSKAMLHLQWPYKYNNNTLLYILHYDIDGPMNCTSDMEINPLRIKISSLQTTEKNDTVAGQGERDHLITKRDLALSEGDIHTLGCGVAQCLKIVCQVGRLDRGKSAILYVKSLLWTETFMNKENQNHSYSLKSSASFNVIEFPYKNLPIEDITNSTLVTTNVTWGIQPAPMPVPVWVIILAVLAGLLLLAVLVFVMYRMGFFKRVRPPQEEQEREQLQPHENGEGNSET
T1 chain 2: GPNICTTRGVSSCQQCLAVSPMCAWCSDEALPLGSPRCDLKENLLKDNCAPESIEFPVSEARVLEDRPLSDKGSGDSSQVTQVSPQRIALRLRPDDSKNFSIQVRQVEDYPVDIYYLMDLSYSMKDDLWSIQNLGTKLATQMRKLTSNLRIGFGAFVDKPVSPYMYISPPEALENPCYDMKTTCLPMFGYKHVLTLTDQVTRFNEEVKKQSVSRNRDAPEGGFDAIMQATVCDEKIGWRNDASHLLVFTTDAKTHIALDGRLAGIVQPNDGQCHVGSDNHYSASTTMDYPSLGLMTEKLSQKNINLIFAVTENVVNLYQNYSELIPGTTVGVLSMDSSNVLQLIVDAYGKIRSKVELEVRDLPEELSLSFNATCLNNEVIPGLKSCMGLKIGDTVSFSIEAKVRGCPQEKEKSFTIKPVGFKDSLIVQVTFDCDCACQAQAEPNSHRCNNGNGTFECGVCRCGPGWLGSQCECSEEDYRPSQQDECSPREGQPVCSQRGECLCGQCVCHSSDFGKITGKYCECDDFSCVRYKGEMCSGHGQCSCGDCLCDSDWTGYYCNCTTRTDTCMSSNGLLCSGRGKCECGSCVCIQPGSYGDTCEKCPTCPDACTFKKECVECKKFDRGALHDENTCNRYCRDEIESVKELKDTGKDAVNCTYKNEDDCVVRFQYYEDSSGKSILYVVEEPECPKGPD

T2: sCD40L (residues 118–261) S128R/E129G HIGM1 mutant (UniProt P29965 118-261, S128R | E129G)
T2 construct: CD40L residues 118–261; HIGM1 (hyper-IgM syndrome type 1) mutation; source: recombinant, site-directed mutagenesis of WT sCD40L, synthesized as for WT
T2 sequence (looked up): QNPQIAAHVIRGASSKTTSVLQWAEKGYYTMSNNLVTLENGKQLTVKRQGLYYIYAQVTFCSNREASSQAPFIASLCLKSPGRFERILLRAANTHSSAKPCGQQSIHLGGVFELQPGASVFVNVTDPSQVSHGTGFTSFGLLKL

T3: sCD40L (residues 118–261) K143T HIGM1 mutant (UniProt P29965 118-261, K143T)
T3 construct: CD40L residues 118–261; HIGM1 mutation; source: recombinant, site-directed mutagenesis of WT sCD40L, synthesized as for WT
T3 sequence (looked up): T2 sequence (looked up) with R11S, G12E, K26T

T4: sCD40L (residues 118–261) G144E HIGM1 mutant (UniProt P29965 118-261, G144E)
T4 construct: CD40L residues 118–261; HIGM1 mutation; source: recombinant, site-directed mutagenesis of WT sCD40L, synthesized as for WT
T4 sequence (looked up): T2 sequence (looked up) with R11S, G12E, G27E

T5: sCD40L (residues 118–261) L155P HIGM1 mutant (UniProt P29965 118-261, L155P)
T5 construct: CD40L residues 118–261; HIGM1 mutation; source: recombinant, site-directed mutagenesis of WT sCD40L, synthesized as for WT
T5 sequence (looked up): T2 sequence (looked up) with R11S, G12E, L38P

B1: disulfide-linked cyclic site 2 peptide of integrin β3 (C260–C288) fused to GST (peptide)
peptide: CRLAGIVQPNDGQSHVGSDNHYSASTTMC
modifications: disulfide 1-29; also: fused to GST
notes: also called cyclic site 2 peptide from β3; 29-mer cyclic β3 peptide
B2: disulfide-linked cyclic site 2 peptide of integrin β1 (C268–C295) fused to GST (peptide)
peptide: CKLGGIVLPNDGQSHLENNMYTMSHYYC
modifications: disulfide 1-28; also: fused to GST
notes: integrin β1 residues 268–295 (site 2); Cloned in pGEX-2T6His; also called the corresponding β1 peptide; 28-mer cyclic β1 peptide
B3: recombinant soluble CD40L (residues 118–261) with no N-terminal KGD motif, wild type S128R; E129G (protein)
chain: T2 sequence (looked up)
B4: recombinant soluble CD40L (residues 118–261) with no N-terminal KGD motif, wild type K143T (protein)
chain: T2 sequence (looked up) with R11S, G12E, K26T
B5: recombinant soluble CD40L (residues 118–261) with no N-terminal KGD motif, wild type L155P (protein)
chain: T2 sequence (looked up) with R11S, G12E, L38P
B6: recombinant soluble CD40L (residues 118–261) with no N-terminal KGD motif, wild type G144E (protein)
chain: T2 sequence (looked up) with R11S, G12E, G27E
B7: recombinant soluble CD40L (residues 118–261) with no N-terminal KGD motif, wild type (ligand)
chain: T2 sequence (looked up) with R11S, G12E
notes: CD40L (CD40 ligand), residues 118–261, without the KGD motif (residues 115–117); the His tag is known from detection with anti-His antibody; also called sCD40L; WT sCD40L; source: recombinant, synthesized as described (13)
B8: CD40 fragment (residues 21–144) fused to GST (domain or fragment, UniProt P25942 21-144, looked up)
chain: EPPTACREKQYLINSQCCSLCQPGQKLVSDCTEFTETECLPCGESEFLDTWNRETHCHQHKYCDPNLGLRVQQKGTSETDTICTCEEGWHCTSEACESCVLHRSCSPGFGVKQIATGVSDTICE
notes: also called CD40 fused to GST

Experiment [1] has as its target B7. In words: ELISA; CD40L immobilized; cyclic site 2 peptides of β1 or β3 fused to GST in solution; bound GST measured with HRP-conjugated anti-GST. The conditions noted are these: both partners purified.
The target in experiment [2] is T1, recombinant soluble integrin αvβ3, …. In words: ELISA. The settings on record: chain shown with the change; immobilized CD40L mutants 10 μg/ml; soluble αvβ3 5 μg/ml in HEPES-Tyrodes buffer, 1 mM Mn2+; detection with anti-β3 (AV10); parent: est. 0.48; read off a plot. A general note: In an ELISA, binding on a coated surface is turned into a signal by an enzyme label.

Experiment [3] concerns the target B8. The experiment in a line: ELISA; CD40 fragment (21–144) fused to GST coated on wells (100 μg/ml in PBS); sCD40L (WT or mutant) incubated 1 h; bound sCD40L measured with HRP-conjugated anti-His. The conditions noted are these: both partners purified.
Experiment [4] concerns the target T2, sCD40L (residues 118–261) S128R/E129G …. Described as above. The settings on record: both partners purified.
The target of experiment [5] is T3, sCD40L (residues 118–261) K143T HIGM1 …. The experiment is described as above. The settings on record: both partners purified.
Experiment [6] concerns the target T4, sCD40L (residues 118–261) G144E HIGM1 …. The description is as above. The settings on record: both partners purified.
For experiment [7], the target named is T5, sCD40L (residues 118–261) L155P HIGM1 …. Described as above. The conditions noted are these: both partners purified.

Substitutions are numbered along the chain they refer to. Numbers in names are those of the source. Bridge positions count the residues as written; N and C are the ends. Ends that are not written are not given here.

B1: in experiment [1], the binding result is “binds”.

Turning to B2, in experiment [1], the binding result is “binds”.

As to B3, in experiment [2], the response is 0.046 OD450.

Consider B4, for which the response in experiment [2] amounted to 0.33 OD450.

Turning to B5, the response in experiment [2] came to 0.042 OD450.

In the case of B6, the response in experiment [2] came out at 0.4 OD450.

In the case of B7, the binding result in experiment [3] is “binds”.

B8: the binding result in experiment [4], in experiment [5], in experiment [6] and in experiment [7] was “binds” in each case.
